These results are taken from paper PMC10208028 (Chemical Science, 2023).

Experiment [1] has as its target T1, amyloid-β 42 (UniProt P05067 672-713). Kind of experiment: native MS.
The target of experiment [2] is T1, amyloid-β 42. Kind of experiment: NMR titration.

B1: Cytochrome c (natural protein)
chain: not shown
modifications: covalently attached heme group
As for B1, the “stoichiometry N” value in experiment [1] is 1 Cyt c : Aβ42.

B2: 15N-labeled Cyt c with 104 amino acid residues (natural protein)
chain: not shown
modifications: 15N-labeled; covalently attached heme group
As to B2, in experiment [2], the binding result is “binds”.
